From the supplement of paper PMC10126150
± gives the standard deviation of the averaged measurements.

Tested on: ATP
Assay: switch fluorescence ratio, 500 uM ATP over buffer (Cy3 cluster intensity, sum of 5 cycles each) (fold (ratio)); higher = stronger signal-on switching upon ATP binding; sequences stand for … in TCGTCGGCAGCGTCAGATGTGTATAAGAGACAGTTTTTTTTTTTTTTTTTTTTTTTTT…TC
Settings: aptamer strand: ATP DNA aptamer (quencher-CACCTGGGGGAGTATTGCGGAGGAAGG + anchor), 100 nM annealed; ATP concentration: 500 uM
In short: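 Cy3-labelled switching-strand clusters on a modified Illumina MiSeq flow-cell were annealed to 100 nM quencher-labelled ATP aptamer and imaged first in selection buffer, then after 15 min with 500 uM ATP at 22 °C. NaOH stripping and re-annealing separated each of five buffer/ATP cycles, and clusters outside 100-1000 RFU were excluded. The fluorescence ratio sums target-cycle Cy3 intensity over buffer-cycle Cy3 intensity per cluster and averages it per switch-domain sequence.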
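Note: ATP exposure 15 min at 22 °C before imaging.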

Row | Sequence | switch fluorescence ratio
1 | TTGTTAATTT | 1.02 ± 0.05
2 | GGTTATTTTT | 1.01 ± 0.036
3 | CATGGCCACC | 1.015 ± 0.0078
4 | TTAGTAGGGT | 0.983 ± 0.04
5 | GTCATTGCGG | 0.994 ± 0.015
6 | CGGATTATTT | 0.984 ± 0.037
7 | CATCAGTTGA | 1.02 ± 0.018
8 | TCTCACATCG | 1.01 ± 0.024
9 | TTAATAGTC | 1.05 ± 0.0041
10 | TTTTTACTAA | 1.01 ± 0.011
11 | TGAAAGGGTA | 0.999 ± 0.022
12 | TCATTCGGTG | 1.05 ± 0.041
13 | GAGTGTTCGG | 0.988 ± 0.042
14 | TTAGGTTTAT | 0.986 ± 0.013
15 | TAGGGAGGGC | 1.03 ± 0.041
16 | TGGTAGGAGA | 0.979 ± 0.013
17 | TGACGAGGGG | 0.967 ± 0.031
18 | TTGACGGGGA | 1.12 ± 0.17
19 | TAGTAGAGTT | 1 ± 0.013
20 | TTTTTCAGTT | 1 ± 0.033
21 | ATTCTTATTG | 0.9801 ± 0.0021
22 | GGCGTGCCGA | 1.011 ± 0.0053
23 | TACCTACTCG | 1.18 ± 0.12

Row | Sequence | switch fluorescence ratio
24 | TTTGACGGAA | 1.27 ± 0.28
25 | GAATGTTTGA | 0.984 ± 0.044
26 | AATCATGGCG | 0.991 ± 0.07
27 | TTTCTAATAT | 1 ± 0.014
28 | CATATTGAAT | 1.01 ± 0.02
29 | GGGGAATCGT | 0.948 ± 0.027
30 | TTGCATTAAG | 0.9963 ± 0.0082
31 | CAAGTAGAGT | 0.9953 ± 0.0059
32 | GATGGGAATG | 1.01 ± 0.013
33 | GGGTCGGATG | 1.03 ± 0.033
34 | TCGCGAGGAG | 1.04 ± 0.014
35 | TCAAAATGCA | 0.9976 ± 0.0092
36 | TACTTGAGCG | 1.02 ± 0.02
37 | TTTTAGTTAC | 1.073 ± 0.0044
38 | TGGGAATTGT | 1 ± 0.026
39 | ACGGGGGTGT | 0.984 ± 0.024
40 | CGTGGATGTG | 0.9885 ± 0.0027
41 | GTGTCGGGAA | 0.9838 ± 0.0023
42 | ACTGGTGGTG | 0.97817 ± 0.0005
43 | CAAGTTAATG | 0.97 ± 0.041
44 | TCGTGATGTA | 0.974 ± 0.014
45 | CTCTGTCACG | 1.11 ± 0.074
46 | GTGTGTTTTT | 0.975 ± 0.053

Row | Sequence | switch fluorescence ratio
47 | GAACATTTCG | 1 ± 0.021
48 | GATCATATTT | 1 ± 0.017
49 | TTTGATACCC | 0.991 ± 0.064
50 | GGGACTGGGT | 0.999 ± 0.012
51 | ATATCAAGGA | 1 ± 0.029
52 | AGGGCCGGTC | 1.06 ± 0.04
53 | GGGGTACGTT | 1 ± 0.032
54 | CCTGCAGAGC | 1.28 ± 0.058
55 | AGTAAAAAAG | 1.042 ± 0.0073
56 | AGGGTTTAGC | 1.02 ± 0.032
57 | ATAGCTAACT | 1.02 ± 0.022
58 | TGTTTCGGTT | 0.943 ± 0.044
59 | TTATAGGGGT | 1.09 ± 0.057
60 | CTGGCCAAGT | 0.999 ± 0.02
61 | TGTTTGGGTA | 1 ± 0.07
62 | TTTAATGTAT | 1.19 ± 0.3
63 | ATAAAGATGG | 0.95924 ± 0.00085
64 | TTTCCCTCGT | 1.16 ± 0.17
65 | AAGGCTTTCT | 1.02 ± 0.032
66 | CATACAAGGG | 1.019 ± 0.0029
67 | ACGATTGGTG | 1.07 ± 0.056
68 | CTTTCAGGCT | 0.984 ± 0.016
69 | GCCAGGAAAA | 0.957 ± 0.053

Row | Sequence | switch fluorescence ratio
70 | AAGTCATGGG | 1.01 ± 0.031
71 | GCATTTTACA | 1 ± 0.013
72 | ATTTTTTGG | 0.997 ± 0.017
73 | TGGCGGCTTT | 1.01 ± 0.041
74 | CTGCATGGGG | 1.062 ± 0.0025
75 | AAATGGAGTG | 0.987 ± 0.018
76 | CCAGGTAACT | 1.05 ± 0.018
77 | TGCCGTAGTC | 0.9685 ± 0.0092
78 | AACCGTTCGA | 1.07 ± 0.046
79 | TAGGATGGAG | 0.97358 ± 0.00078
80 | CTAAGGGGGG | 1.04 ± 0.033
81 | GAGTGTGACT | 0.97 ± 0.055
82 | ATATTCCGTT | 0.968 ± 0.018
83 | GCGGTCAGGG | 1.01 ± 0.016
84 | CGTTTTGGGT | 1.01 ± 0.033
85 | TTTCGGAAGC | 1.005 ± 0.0015
86 | ACGGACCATT | 1.27 ± 0.014
87 | ACTAATGTGG | 0.9959 ± 0.0068
88 | GAGGGTTCCG | 1.01 ± 0.026
89 | TTAAATTGCG | 0.994 ± 0.027
90 | GGTATCGAGG | 1.01 ± 0.015
91 | CTGGGTATTG | 0.971 ± 0.012
92 | TGGGCGATAG | 1.02 ± 0.027

Row | Sequence | switch fluorescence ratio
93 | TGACTGGGAA | 1.06 ± 0.091
94 | CTGGCGGAAA | 1.05 ± 0.093
95 | GACCGGGTTC | 1.02 ± 0.033
96 | GGTGAGGGTA | 0.991 ± 0.012
97 | GATGATTATG | 0.993 ± 0.011
98 | GATTAAAGGC | 1.01 ± 0.039
99 | ATTTTTGTTA | 0.986 ± 0.054
100 | ACAATAATAT | 1 ± 0.028
101 | AAGCTTACGG | 1.06 ± 0.056
102 | GGGTTCTTTA | 0.997 ± 0.048
103 | TAAGTTGGCT | 0.958 ± 0.023
104 | AGGGGCAGAG | 1.06 ± 0.092
105 | TAAGTACGGC | 1.31 ± 0.02
106 | AGTATTCGGG | 0.976 ± 0.058
107 | TATTTAATTT | 0.997 ± 0.026
108 | ATTCGCCGGT | 0.959 ± 0.0066
109 | GGAGTGCCAG | 1 ± 0.027
110 | AACAGATCTG | 1.02 ± 0.014
111 | ATGGTTCAAC | 1.003 ± 0.01
112 | TCGGGGCTTT | 0.982 ± 0.022
113 | GCGAGAATAT | 1.03 ± 0.043
114 | CCAAGGTCCT | 1.01 ± 0.014
115 | GGATTAGCAG | 1.034 ± 0.0075

Row | Sequence | switch fluorescence ratio
116 | TGCATCATTG | 0.988 ± 0.039
117 | AATGCATCTA | 0.989 ± 0.025
118 | TACTCATGAA | 1.038 ± 0.0037
119 | GGCGGGTGCG | 0.984 ± 0.028
120 | TGGAGTCGTG | 0.9729 ± 0.0091
121 | GGCCTTTTGA | 0.997 ± 0.015
122 | TGGGTTCAGG | 1 ± 0.015
123 | GATGATGGGT | 1 ± 0.023
124 | AGGGCATTAG | 1 ± 0.1
125 | TAATCGTGGG | 1.02 ± 0.011
126 | TTTGCTGGGA | 0.9812 ± 0.0098
127 | CCCATGGGGG | 1.01 ± 0.028
128 | GTTGATGGGG | 0.984 ± 0.047
129 | TTCAAAGGCC | 0.981 ± 0.049
130 | ATGGCAGGGC | 1.01 ± 0.016
131 | CACAGCTCAC | 1.79 ± 0.065
132 | TAGTTTGGTT | 0.9887 ± 0.0052
133 | GGTATGCTCT | 0.998 ± 0.065
134 | GAATAGTTTT | 1.01 ± 0.02
135 | TAGGTGGGGT | 0.971 ± 0.016
136 | TTCCGGGCTG | 1 ± 0.02
137 | AATTCCTCAT | 1.04 ± 0.024
138 | GCTACTTTGC | 1.037 ± 0.0045

Row | Sequence | switch fluorescence ratio
139 | CTAAGGGGTT | 0.991 ± 0.036
140 | GGATGTTTCG | 1.02 ± 0.02
141 | CGGTTTTGTA | 0.971 ± 0.028
142 | AGGTTCGTTC | 0.97 ± 0.039
143 | AGTGGAAATT | 1.01 ± 0.049
144 | TAAATCGGTG | 0.977 ± 0.039
145 | GTATCAGGGC | 1.04 ± 0.033
146 | TGTTTATGAC | 0.9847 ± 0.0081
147 | GTGGGGAAGT | 0.995 ± 0.034
148 | CGTCATGGGT | 1 ± 0.035
149 | AATAACTACC | 1.15 ± 0.032
150 | CGGGGCGGCG | 0.986 ± 0.002
151 | AAGGTTCCTG | 0.98 ± 0.03
152 | TAGATGTTTT | 0.986 ± 0.035
153 | TCATACTCAA | 1.4 ± 0.018
154 | GAACGGCGGA | 0.9811 ± 0.002
155 | TACTGAATGG | 0.997 ± 0.0051
156 | CACCCCGCAC | 3.46 ± 0.48
157 | AGAGGTTAGG | 0.9874 ± 0.0033
